Data as given in publication PMC3392545.

Biological target: human STING C-terminal domain (CTD) containing residues 155 to 341 (human) (UniProt Q86WV6)
Experiment: SEC

Question: How did the stoichiometry N turn out when “human STING C-terminal domain (CTD) containing residues 155 to 341 (from UniProt Q86WV6 155-341) (domain or fragment)” was run?
Answer: 2
